Measured values: patent US20210155689A1 (SHANGHAI PHARMAEXPLORER, published 2021)

T1: human LAG-3 on cells (HEK293-hLAG-3 stable cell line) (human, UniProt P18627 23-525)
T1 sequence: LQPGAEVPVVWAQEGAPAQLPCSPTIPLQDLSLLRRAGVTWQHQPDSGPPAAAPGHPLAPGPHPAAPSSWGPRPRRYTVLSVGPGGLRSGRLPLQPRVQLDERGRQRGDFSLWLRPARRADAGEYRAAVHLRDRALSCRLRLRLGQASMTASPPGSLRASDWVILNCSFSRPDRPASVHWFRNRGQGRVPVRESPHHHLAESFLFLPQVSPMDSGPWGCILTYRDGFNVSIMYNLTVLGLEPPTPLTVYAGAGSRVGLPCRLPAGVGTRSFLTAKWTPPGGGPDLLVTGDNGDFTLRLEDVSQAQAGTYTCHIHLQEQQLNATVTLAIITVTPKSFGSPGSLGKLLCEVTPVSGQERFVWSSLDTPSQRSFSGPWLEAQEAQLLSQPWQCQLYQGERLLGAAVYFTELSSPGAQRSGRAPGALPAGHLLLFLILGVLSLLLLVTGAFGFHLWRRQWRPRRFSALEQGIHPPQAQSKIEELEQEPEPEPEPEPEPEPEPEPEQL

T2: monkey LAG-3 (full length, on the cell surface) (monkey, UniProt P18627 24-525 (human entry))
T2 construct: also called HEK293-cLAG-3; monkey LAG-3 protein on the cell surface
T2 chain: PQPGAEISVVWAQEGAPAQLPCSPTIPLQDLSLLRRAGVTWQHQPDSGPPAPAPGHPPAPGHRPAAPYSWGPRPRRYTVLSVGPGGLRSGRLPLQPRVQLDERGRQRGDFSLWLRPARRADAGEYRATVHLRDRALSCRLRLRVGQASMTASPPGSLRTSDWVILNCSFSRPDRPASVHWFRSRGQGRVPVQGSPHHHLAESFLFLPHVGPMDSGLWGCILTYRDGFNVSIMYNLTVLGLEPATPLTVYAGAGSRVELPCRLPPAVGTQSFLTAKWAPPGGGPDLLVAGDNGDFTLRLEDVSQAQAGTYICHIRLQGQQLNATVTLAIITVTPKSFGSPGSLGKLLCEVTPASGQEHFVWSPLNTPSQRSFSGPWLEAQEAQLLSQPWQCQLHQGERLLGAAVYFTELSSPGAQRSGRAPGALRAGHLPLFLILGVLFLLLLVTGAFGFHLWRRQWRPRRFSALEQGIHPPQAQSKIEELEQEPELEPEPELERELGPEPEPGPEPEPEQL

T3: human LAG-3 (full length, on the cell surface) (human, UniProt P18627 23-525)
T3 construct: Full-length human LAG-3 expressed on cells; also called HEK293-hLAG-3; HEK293 cells transfected with LAG-3 gene
T3 sequence: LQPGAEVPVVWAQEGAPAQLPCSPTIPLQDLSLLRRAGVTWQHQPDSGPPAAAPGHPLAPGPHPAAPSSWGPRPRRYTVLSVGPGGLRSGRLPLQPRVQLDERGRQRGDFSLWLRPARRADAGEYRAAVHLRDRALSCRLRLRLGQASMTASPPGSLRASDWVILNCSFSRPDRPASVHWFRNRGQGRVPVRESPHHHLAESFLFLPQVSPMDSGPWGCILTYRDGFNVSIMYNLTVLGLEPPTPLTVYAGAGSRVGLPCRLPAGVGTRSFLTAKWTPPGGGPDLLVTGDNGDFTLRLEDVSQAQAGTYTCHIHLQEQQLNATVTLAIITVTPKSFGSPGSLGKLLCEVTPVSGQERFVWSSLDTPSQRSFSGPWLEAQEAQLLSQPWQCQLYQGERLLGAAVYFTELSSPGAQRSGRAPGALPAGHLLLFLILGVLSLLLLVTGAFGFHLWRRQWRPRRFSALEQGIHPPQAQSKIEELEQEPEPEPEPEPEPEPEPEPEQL


What was measured:
[1] = target: T1, human LAG-3 on cells (HEK293-hLAG-3 …); test: cell-based or functional assay
[2] = target: T2, monkey LAG-3 (full length, on the cell …); test: FACS, HEK293-cLAG-3; 0.013 nM
From the text: (§1) The pIRES plasmid with the monkey-derived full-length gene was transfected into the HEK293 cell line to construct a HEK293 stable cell line containing monkey LAG-3 (herein referred to as HEK293-cLAG-3 stable cell line). The HEK293-hLAG-3 stable cell line and HEK293-cLAG-3 stable cell line were expanded in a T-75 cell culture flask to a 90% confluence. The medium was aspirated, and the cells were washed with HBSS (Hanks' Balanced Salt Solution) 1-2 times, then treated with a enzyme-free cell dissociation fluid (Versene solution: Life technology) and the cells were collected. The cells were washed with HBSS buffer for 1-2 times. After counted, the cells were diluted with HBSS to 1-2×10⁶ cells per ml, added with 1% goat serum blocking solution, incubated on ice for 20-30 minutes, and then washed with HBSS for 2 times by centrifugation. The collected cells were suspended in the FACS buffer (HBSS+1% BSA) to 2×10⁶ cells/ml, added as 100 microliters per well to a 96-well FACS reaction plate, added with 100 microliters per well of the antibody sample to be tested, incubated on ice for 1-2 hours. The plate was washed twice with the FACS buffer by centrifugation, added with 100 microliters of fluorescent (Alexa 488)-labeled secondary antibodies per well, and incubated on ice for 0.5-1.0 hours. The plate was washed 2-3 times with FACS buffer by centrifugation, added with 100 μl fixative solution (4% Paraformaldehyde) per well to suspend the cells. 5-10 minutes later, it was washed 1-2 times with FACS buffer by centrifugation. The cells were suspended with 100 microliters of FACS buffer, FACS (FACSCalibur, BD) was used for detection and the results were analyzed.

[3] = target: T3, human LAG-3 (full length, on the cell …); test: FACS, HEK293-hLAG-3; 200.000 nM
From the text: as §1

| Binder | IL-2 production, SEB-dependent PBMC stimulation test, 0.0032 ug/ml, N = 1 [1] [pg/mL] | IL-2 production, SEB-dependent PBMC stimulation test, 0.0032 ug/ml, N = 2 [1] [pg/mL] | IL-2 production, SEB-dependent PBMC stimulation test, 0.016 ug/ml, N = 1 [1] [pg/mL] | IL-2 production, SEB-dependent PBMC stimulation test, 0.016 ug/ml, N = 2 [1] [pg/mL] | IL-2 production, SEB-dependent PBMC stimulation test, 0.08 ug/ml, N = 1 [1] [pg/mL] | IL-2 production, SEB-dependent PBMC stimulation test, 0.08 ug/ml, N = 2 [1] [pg/mL] | IL-2 production, SEB-dependent PBMC stimulation test, 0.4 ug/ml, N = 1 [1] [pg/mL] | IL-2 production, SEB-dependent PBMC stimulation test, 0.4 ug/ml, N = 2 [1] [pg/mL] | IL-2 production, SEB-dependent PBMC stimulation test, 2 ug/ml, N = 1 [1] [pg/mL] | IL-2 production, SEB-dependent PBMC stimulation test, 2 ug/ml, N = 2 [1] [pg/mL] | IL-2 production, SEB-dependent PBMC stimulation test, 10 ug/ml, N = 1 [1] [pg/mL] | IL-2 production, SEB-dependent PBMC stimulation test, 10 ug/ml, N = 2 [1] [pg/mL] | Mean fluorescence intensity [2] [MFI] | Mean fluorescence intensity [3] [MFI] |
| --- | --- | --- | --- | --- | --- | --- | --- | --- | --- | --- | --- | --- | --- | --- |
| 409B11E12 mouse-human chimeric antibody (antibody, V domains shown, also called mAb104-409B11E12) VH: QVQLQQSGAELVRPGASVTLSCKASGYTFTDYEMHWVKQTTVHGLEWIGATDPETSYSAYNQKFKGKAILTADKSSSTAYMELRSLTSEDSAVYYCIATGWNDWGQGTSLTVSS VL: DLKMTQSPSSMYASLGERVTITCKASQDINSYLSWFQQKPGKSPKTLIYRANRLLDGVPSRFSGSGSGQDYSLTISSLEYEDMGIYYCLQYDEFPYTFGGGTKLEIK | 1340 | 1190 | 1720 | 1230 | 1550 | 1530 | 2820 | 1990 | 2540 | 1920 | 3140 | 3010 | – | – |
| 409D4E10 mouse-human chimeric antibody (antibody, V domains shown, also called mAb112-409D4E10) VH: QVQLQQSGAELVRPGASVTLSCKASGNTFTDYEMHWVKQTPVHGLEWIGATDPETDNTAYNQKFKGKAILTTDKSSSTAYMELRSLTSEDSAVYYCITSGWNDWGQGTSLTVSS VL: DIKMTQSPSSMYASLGERVTITCKASQDINSYLSWFQQKPGKSPKTLIYRANRLLDGVPSRFSGSGSGQDYSLTISSLEYEDMGIYYCLQYNEFPYTFGGGTKLEIK | 1660 | 1240 | 1250 | 1450 | 1630 | 1420 | 2170 | 2160 | 2770 | 1940 | 2740 | 2100 | – | – |
| 409D4E10 (mouse antibody purified from hybridoma) (antibody, V domains shown, also called mAb112-409D4E10) VH: QVQLQQSGAELVRPGASVTLSCKASGNTFTDYEMHWVKQTPVHGLEWIGATDPETDNTAYNQKFKGKAILTTDKSSSTAYMELRSLTSEDSAVYYCITSGWNDWGQGTSLTVSS VL: DIKMTQSPSSMYASLGERVTITCKASQDINSYLSWFQQKPGKSPKTLIYRANRLLDGVPSRFSGSGSGQDYSLTISSLEYEDMGIYYCLQYNEFPYTFGGGTKLEIK | – | – | – | – | – | – | – | – | – | – | – | – | 3.5 | 154 |
| 556F6B8 mouse-human chimeric antibody (antibody, V domains shown, also called mAb123-556F6B8; 556F8B8) VH: RVQLKQSGPGLVQPSQSLSITCTVSGFSLIKYGVHWVRQSPGEGLEWLGVIWRGGITDYNAAFMSRLSITKDNSKSQVFFKMNSLQADDTAIYYCAKWDGPLAMDYWGQGTSVTVSS VL: DIVMTQSHKFLSTSVGDRVSITCKASQDVGTTVAWYQQKPGQSPKLLIYWASTRHTGVPDRFTGSGSGTDFTLTISNVQSEDLADYFCQQYSSYPYTFGGGTKLEIK | 1780 | 1910 | 1430 | 2010 | 1780 | 1980 | 2570 | 2810 | 3800 | 4010 | 2610 | 3260 | – | – |
